Assay results taken from patent US20120121559A1 (VALTED, published 2012).

Assays:
[1] = target: PARsylated PARP1 (recombinant PARP1 automodified in vitro), P09874
[2] = target: recombinant PARP1, non-PARsylated, P09874
[3] = target: PARsylated PARP1, endogenous protein of MCF7 cells, P09874
[4] = target: T1, PARIS (parkin interacting substrate) (human, UniProt Q6NUN9 1-644, limits assumed); assay: immunoprecipitation of endogenous Iduna from MCF7 lysate, immunoblot
T1 construct: Negative control of the co-immunoprecipitation
T1 sequence (Q6NUN9 whole entry): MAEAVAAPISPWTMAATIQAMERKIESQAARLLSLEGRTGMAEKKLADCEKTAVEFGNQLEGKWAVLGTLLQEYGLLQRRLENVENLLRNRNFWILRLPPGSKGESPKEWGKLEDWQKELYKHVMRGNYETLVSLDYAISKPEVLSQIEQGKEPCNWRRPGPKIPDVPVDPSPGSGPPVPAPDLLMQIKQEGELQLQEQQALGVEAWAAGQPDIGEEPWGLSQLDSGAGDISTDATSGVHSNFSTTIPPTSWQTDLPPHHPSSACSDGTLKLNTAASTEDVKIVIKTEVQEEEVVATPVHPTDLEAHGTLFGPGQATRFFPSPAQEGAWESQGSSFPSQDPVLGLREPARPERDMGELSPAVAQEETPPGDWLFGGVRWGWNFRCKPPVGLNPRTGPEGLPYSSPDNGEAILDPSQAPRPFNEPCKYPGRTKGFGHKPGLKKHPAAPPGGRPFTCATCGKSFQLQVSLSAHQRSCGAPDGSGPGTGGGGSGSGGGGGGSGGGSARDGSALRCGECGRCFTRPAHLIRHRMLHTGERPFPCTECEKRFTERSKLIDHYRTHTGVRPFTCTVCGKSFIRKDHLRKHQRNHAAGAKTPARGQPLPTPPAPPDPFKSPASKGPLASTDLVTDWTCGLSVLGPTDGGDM

Chain of recombinant PARP1, non-PARsylated, P09874 (P09874 whole entry, looked up): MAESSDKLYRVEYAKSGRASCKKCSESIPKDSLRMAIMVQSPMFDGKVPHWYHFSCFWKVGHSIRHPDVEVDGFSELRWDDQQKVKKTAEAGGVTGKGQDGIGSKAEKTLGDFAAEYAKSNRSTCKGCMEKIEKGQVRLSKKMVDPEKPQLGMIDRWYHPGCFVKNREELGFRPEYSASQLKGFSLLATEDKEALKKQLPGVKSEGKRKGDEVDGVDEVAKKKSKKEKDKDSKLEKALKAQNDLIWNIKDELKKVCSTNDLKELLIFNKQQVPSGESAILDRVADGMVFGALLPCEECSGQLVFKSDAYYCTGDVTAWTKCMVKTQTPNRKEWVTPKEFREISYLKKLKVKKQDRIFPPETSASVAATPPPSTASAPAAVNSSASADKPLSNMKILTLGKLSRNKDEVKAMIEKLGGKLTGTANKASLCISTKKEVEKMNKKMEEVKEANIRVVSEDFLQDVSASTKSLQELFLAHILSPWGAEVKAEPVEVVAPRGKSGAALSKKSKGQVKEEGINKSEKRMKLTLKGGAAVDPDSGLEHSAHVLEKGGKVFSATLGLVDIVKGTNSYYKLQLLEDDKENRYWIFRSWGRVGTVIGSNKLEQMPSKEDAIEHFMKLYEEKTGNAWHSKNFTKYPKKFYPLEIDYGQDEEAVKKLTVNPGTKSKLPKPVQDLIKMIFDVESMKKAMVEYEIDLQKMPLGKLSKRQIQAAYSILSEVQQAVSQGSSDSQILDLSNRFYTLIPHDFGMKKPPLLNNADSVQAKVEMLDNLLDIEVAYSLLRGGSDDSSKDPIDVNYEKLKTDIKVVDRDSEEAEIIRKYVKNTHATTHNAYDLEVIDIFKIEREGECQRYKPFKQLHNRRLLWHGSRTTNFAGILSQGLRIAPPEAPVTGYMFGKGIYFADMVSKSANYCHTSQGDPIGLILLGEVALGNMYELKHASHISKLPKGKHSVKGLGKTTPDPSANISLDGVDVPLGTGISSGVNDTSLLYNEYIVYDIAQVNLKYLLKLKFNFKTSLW
Chain of PARsylated PARP1, endogenous protein of MCF7 cells, P09874 (P09874 whole entry, looked up): as above
Chain of PARsylated PARP1 (recombinant PARP1 automodified in vitro), P09874 (P09874 whole entry, looked up): as above

B1: GST-Iduna (protein)
chain: MEMAGCGEIDHSINMLPTNKKANESCSNTAPSLTVPECAICLQTCVHPVSLPCKHVFCYLCVKGASWLGKRCALCRQEIPEDFLDKPTLLSPEELKAASRGNGEYAWYYEGRNGWWQYDERTSRELEDAFSKGKKNTEMLIAGFLYVADLENMVQYRRNEHGRRRKIKRDIIDIPKKGVAGLRLDCDTNTVNLARESSADGADSGSAQTGASVQLAVPSSTRPLTSVDGQLTSPVTPSPDAGISLEDSFAHLQLSGDSIAERSHRGEGEEDHESPSSGRVPDTSVEETESDASSDSEDAPVVVAQHSLTQQRPLVPNGNQTVADQSDRSGTDRSVAGGGTMSVNVRSRRPDGQCTVIEV
With B1 the “in vitro ubiquitination assay (E1, UBCH 5c, ubiquitin), immunoblot with antibodies to ubiquitin” value [1] was “Only PARsylated PARP1 is ubiquitinated by GST-Iduna” and the “in vitro ubiquitination assay (E1, UBCH 5c, ubiquitin), immunoblot with antibodies to ubiquitin” value [2] was “Only PARsylated PARP1 is ubiquitinated by GST-Iduna (non-PARsylated PARP1 is not ubiquitinated)”.

B2: GFP-Iduna (EGFP-tagged Iduna) (protein)
chain: MEMAGCGEIDHSINMLPTNKKANESCSNTAPSLTVPECAICLQTCVHPVSLPCKHVFCYLCVKGASWLGKRCALCRQEIPEDFLDKPTLLSPEELKAASRGNGEYAWYYEGRNGWWQYDERTSRELEDAFSKGKKNTEMLIAGFLYVADLENMVQYRRNEHGRRRKIKRDIIDIPKKGVAGLRLDCDTNTVNLARESSADGADSGSAQTGASVQLAVPSSTRPLTSVDGQLTSPVTPSPDAGISLEDSFAHLQLSGDSIAERSHRGEGEEDHESPSSGRVPDTSVEETESDASSDSEDAPVVVAQHSLTQQRPLVPNGNQTVADQSDRSGTDRSVAGGGTMSVNVRSRRPDGQCTVIEV
In the case of B2, the “in vitro ubiquitination assay on anti-GFP immunoprecipitates, immunoblot with antibodies to PAR and ubiquitin” value [3] is reported as “only GFP-Iduna is capable of polyubiquitination of PARsylated PARP1”.

B3: human Iduna (RNF146) (enzyme)
chain: MAGCGEIDHSINMLPTNKKANESCSNTAPSLTVPECAICLQTCVHPVSLPCKHVFCYLCVKGASWLGKRCALCRQEIPEDFLDKPTLLSPEELKAASRENGEYAWYYEGRNGWWQYDERTSRELEDAFSKGKKNTEMLIAGFLYVADLENMVQYRRNEHGRRRKVKRDIIDIPKKGVAGLRLDCDANTVNLARESSADGADSVSAQSGASVQPLVSSVRPLTSVDGQLTSPATPSPDASTSLEDSFAHLQLSGDNTAERSHRGEGEEDHESPSSGRVPAPDTSIEETESDASSDSEDVSAVVAQHSLTQQRLLVSNANQTVPDRSDRSGTDRSVAGGGTVSVSVRSRRPDGQCTVIEV
notes: also called hIduna; endogenous Iduna (MCF7 cells)
B3: no binding [4].
